Consider 1 protein from FireProtDB (doi:10.1016/0022-2836(92)90906-z).

The conditions of this series: Bacillus amyloliquefaciens; pH 6.3; 25 °C; Urea; Fluorescence; MES 1.00 M; NaCl 613 mM; reversible: yes; whole UniProt chain shown.

B1: Ribonuclease wild type, P00648 (protein)
chain: MMKMEGIALKKRLSWISVCLLVLVSAAGMLFSTAAKTETSSHKAHTEAQVINTFDGVADYLQTYHKLPDNYITKSEAQALGWVASKGNLADVAPGKSIGGDIFSNREGKLPGKSGRTWREADINYTSGFRNSDRILYSSDWLIYKTTDHYQTFTKIR
With B1, the denaturant m value worked out at 1.93 kcal/mol/M, the “denaturant midpoint (higher = more stable)” value is 4.57 M and the unfolding free energy was found to be 8.8 kcal/mol.
